This is an account of results in patent US20250066490A1 (PROFOUNDBIO US, published 2025).

In assay [1] the target is T1, human CD70 expressed on the cell surface of tumor cell lines (human, UniProt P32970 1-193).
T1 sequence (looked up): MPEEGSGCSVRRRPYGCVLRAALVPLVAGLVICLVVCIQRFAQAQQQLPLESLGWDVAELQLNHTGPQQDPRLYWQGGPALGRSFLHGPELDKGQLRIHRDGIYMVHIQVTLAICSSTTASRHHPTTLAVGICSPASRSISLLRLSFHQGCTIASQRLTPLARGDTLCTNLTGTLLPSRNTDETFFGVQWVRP
The assay can be described thus: cell-based or functional assay.

Assay [2] concerns the target T1, human CD70 expressed on the cell …. The assay can be described thus: flow cytometry on Raji cells. As to the method:
(§1) Binding activity of 2E7 or the isotype control with a target cell line (Raji) or a cell line (MCF-7) that has negligible level of CD70 expression were evaluated by flow cytometry (Beckman, Cytoflex). 3×10⁵ cells per well were seeded on a 96-well V-bottomed plate and incubated with 100 μl of 2E7 in serial dilutions. After 30 min incubation at 4° C., cells were washed twice with PBS, stained with 100 μl of 1:200 diluted PE-conjugated anti-human Fc in FACS buffer (1×PBS containing 1% BSA), then incubated at 4° C. for 30 min. Cells were finally washed two times with PBS and analyzed by flow cytometric analysis.

For assay [3] the target is unchanged. The assay can be described thus: flow cytometry on U251 cells. On the procedure: (§2) The lead antibodies were tested for binding to renal carcinoma cells and glioblastoma cells expressing CD70 on the cell surface by flow cytometry. […] U251 cells were cultured with MEM medium containing of 10% FBS and 1% NEAA+1 mM sodium pyruvate. DBTRG-05MG cells were cultured with DMEM medium (Gibco, Cat #C11995500BT) containing of 10% FBS. Each of the lead antibodies and the controls were incubated for 30 mins with the different cell lines (3×10⁵ cells per well) in 0.2 ml FACS buffer (1×PBS with 0.1% BSA) at 4° C. Then, the cells were pelleted, washed, and incubated at 4° C. for 30 mins with 100 μl of 1:200 diluted PE-conjugated anti human Fc (Abcam, Ab98596) in FACS buffer. The cells were pelleted again, washed with PBS, resuspended in FACS buffer and analyzed by flow cytometer (Beckman, CytoFLEX).
(§3) Antibodies 2H8 and 2D2 had slightly higher binding ability to the cell lines than that of antibody 69A7.

The target is the same in assay [4]. The assay can be described thus: flow cytometry on 786-O cells. On the procedure: as §2, §3
The target in assay [5] is T2, human CD70 recombinant protein (human, UniProt P32970 39-193, limits assumed).
T2 construct: May be the same reagent as ACRO CDL-H5246; also called CD70 protein
T2 sequence (looked up): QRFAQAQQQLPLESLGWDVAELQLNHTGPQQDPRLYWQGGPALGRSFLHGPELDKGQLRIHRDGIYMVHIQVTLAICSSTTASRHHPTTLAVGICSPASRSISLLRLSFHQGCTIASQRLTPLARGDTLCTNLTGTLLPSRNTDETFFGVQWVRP
The assay can be described thus: ELISA, coated human CD70, IgG titrated. As to the method: (§4) The binding specificity of the CD70 antibodies was tested by ELISA according to a standard protocol. Briefly, 96-well micro-plates were coated with 2 μg/ml of human or cynomolgus CD70 recombinant protein in PBS at 100 μl per well and incubated overnight at 4° C. The plates were washed twice with TBS+0.5% Tween20. 200 μL of blocking buffer (2% BSA in PBS) was added to each well, and the plates were incubated at 37° C. for 2 hours. The plates were washed using the wash buffer mentioned above. Serially diluted antibodies were added to the ELISA plates using 100 μl per well, and the plates were incubated for 1 hour at room temperature. Then plates were washed 3 times. HRP conjugated anti-human Fc antibody solution (Sigma, I18885-2ML, diluted with blocking buffer) was added to the plates using 100 μl per well. The plates were incubated at room temperature for 1 hour and then washed 3 times. Then the TMB solution was added to plates using 100 μl per well and the plates were placed at RT for 5-15 mins. Then the stop solution (2M H2SO4) was added using 50 μl per well. The absorbance was measured at A450 and A630.

In assay [6] the target is T3, human CD70 extra-cellular domain (ECD) linked to His tag (human, UniProt P32970 39-193).
T3 construct: extracellular domain; also called Hu CD70; HU CD70; not shown: His tag
T3 sequence (looked up): T2 sequence (looked up)
The assay can be described thus: BLI, global 1:1 fit over 200-3.13 nM; cell repeated in each concentration row.

In assay [7] the target is T4, cyno CD70 recombinant ECD protein (cyno).
T4 construct: extracellular domain; The sentence on the purchase names human, rat and mouse ECD-His only
The description is as above.

Assay [8] deals with T1, human CD70 expressed on the cell …. The assay can be described thus: flow cytometry on U251 cells, PE anti-human Fc, MFI; same fit as Table 6, which prints it in nM. As to the method:
as §2, §3

In assay [9] the target is T2, human CD70 recombinant protein. The assay can be described thus: ELISA, IgG titrated on coated human CD70 recombinant protein (2 µg/ml), anti-human Fc-HRP, OD450. As to the method:
as §4

Assay [10] concerns the target T1, human CD70 expressed on the cell …. The assay can be described thus: flow cytometry on 786-O cells, PE anti-human Fc, MFI; same fit as Table 6, which prints it in nM. As to the method: as §2, §3
Assay [11] addresses T5, cynomolgus CD70 recombinant protein (cynomolgus, UniProt A0A2K5WTU9 39-190).
T5 construct: also called cyno-antigen; cynomolgus CD70 protein
T5 sequence: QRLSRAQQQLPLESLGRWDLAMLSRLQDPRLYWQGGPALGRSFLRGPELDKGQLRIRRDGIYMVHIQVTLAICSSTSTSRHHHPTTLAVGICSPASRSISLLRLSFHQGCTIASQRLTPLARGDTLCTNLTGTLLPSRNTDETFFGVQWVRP
The assay can be described thus: ELISA, IgG titrated on coated cynomolgus CD70 recombinant protein (2 µg/ml), anti-human Fc-HRP, OD450. As to the method:
as §4

Assay [12] deals with T1, human CD70 expressed on the cell …. The assay can be described thus: flow cytometry on Raji cells, PE anti-human Fc, MFI(PE); the text gives this EC50 only as about 19 nM. On the procedure:
as §1

B1: 2E7, full IgG (antibody, V domains shown)
VH: QVQLQESGPGLVKPSETLSLTCTVSGGSVSSDYYYWSWIRQPPGKGLEWLGYIYYSGSTNYNPSLKSRVTISVDTSKNQFSLKLRSVTTADTAVYYCARGDGDFLGVCFDYWGQGTLVTVSS
VL: EIVLTQSPATLSLSPGERATLSCRASQSVSSYLAWYQQKPGQAPRLLIFDASNRATGIPARFSGSGSGTDFTLTISSLEPEDFAVYYCQQRSNWPLTFGGGTKVEIK
Consider B1, for which the “Internalization rate (%) on 786-O” value in assay [1] was found to be 62%. Besides, the “Internalization rate (%) on Caki-1” value in [1] worked out at 51%. In addition, the EC50 in [2] is around 19 nM; in assay [3] it was 4.03 nM; in assay [4] it was 2.69 nM; in [8] it was 0.604 µg/mL; in [9], 0.0161 µg/mL; in assay [10], 0.403 µg/mL. Moreover, the EC50 in assay [11] amounted to 0.00401 µg/mL; in assay [12], 2.98 µg/mL. For the same molecule, the “EC50 ratio against antibody 69A7” value in assay [5] turned out to be 1.5 times. Moreover, the dissociation constant (Kd) in [6] worked out at 0.807 nM; in [7] it was 0.39 nM. Moreover, the results for the off-rate (koff) in assay [6] and in [7] were 0.000254 s⁻¹ and 0.000241 s⁻¹, respectively. Also, the kon in assay [6] turned out to be 314000 M⁻¹ s⁻¹; in assay [7], 618000 M⁻¹ s⁻¹.
